Experimental findings from publication PMC10360156 are described below.

For assay [1], the target named is four maltose binding proteins arranged in tandem (4MBP).
Assay [2] has the same target. This is another data set of the same source.
Assay [3] has the same target. The source holds these as a separate data set.

B1: human small heat shock protein HSPB8 (wild type) (natural protein)
chain: MADGQMPFSCHYPSRLRRDPFRDSPLSSRLLDDGFGMDPFPDDLTASWPDWALPRLSSAWPGTLRSGMVPRGPTATARFGVPAEGRTPPPFPGEPWKVCVNVHSFKPEELMVKTKDGYVEVSGKHEEKQQEGGIVSKNFTKKIQLPAEVDPVTVFASLSPEGLLIIEAPQVPPYSTFGESSFNNELPQDSQEVTCT
In assay [1], B1 returned a no. of weak aggregates of 4MBP per trace with 5 μM HSPB8 (No HSPB8: 1.16) (aggregates per trace) of 0.64. Further, in assay [2], the percentage of residues of 4MBP forming weak aggregates after unfolding and 5 s relaxation at 0 pN, with 5 μM HSPB8 (40% in the absence of chaperone) is 19%; the percentage of residues of 4MBP in tight aggregates (not unfolded at 63 pN) after unfolding and relaxation, with 5 μM HSPB8 was < 2%.

B2: HSPB8-K141E, pathogenic mutant of human HSPB8 (natural protein)
chain: MADGQMPFSCHYPSRLRRDPFRDSPLSSRLLDDGFGMDPFPDDLTASWPDWALPRLSSAWPGTLRSGMVPRGPTATARFGVPAEGRTPPPFPGEPWKVCVNVHSFKPEELMVKTKDGYVEVSGKHEEKQQEGGIVSKNFTEKIQLPAEVDPVTVFASLSPEGLLIIEAPQVPPYSTFGESSFNNELPQDSQEVTCT
Molecule B2 showed a no. of weak aggregates of 4MBP per trace with 5 μM HSPB8-K141E (No HSPB8: 1.16) (aggregates per trace) in assay [1] of 0.85. In assay [3], this molecule yielded a percentage of residues of 4MBP forming weak aggregates after unfolding and relaxation, with 5 μM HSPB8-K141E (19% for wild-type HSPB8; 40% in the absence of chaperone) of 31%.
